Data taken from patent publication US20120046222A1.

Target: GLP-1 receptor (UniProt P32301)
Test: cell-based or functional assay

Substance	Cyclase GLP-1 Receptor EC50 [pM]
dAla^2,Pro^3-exendin-4 amide (from UniProt P26349 48-86) (peptide)	4
dAla^2,Pro^3,Leu^14,Phe^25-exendin-4 (1-28) amide (from UniProt P26349) (peptide)	29
